In doi:10.1101/2024.01.17.576111:

Target: PbrSYP71ΔTM-His (lacking TM domain of PbrSYP71) (Pyrus bretschneideri)
Test: MST

Kd: 185 nM
Substance: F-actin (Pre-formed Actin Filaments, rabbit skeletal muscle actin) (from UniProt P68135 1-377) (natural protein)
